# Reference: IntAct's records for PubMed 23435383
# B1: DNA mismatch repair protein MLH1 (Saccharomyces cerevisiae), P38920 (parent)
# chain: MSLRIKALDASVVNKIAAGEIIISPVNALKEMMENSIDANATMIDILVKEGGIKVLQITDNGSGINKADLPILCERFTTSKLQKFEDLSQIQTYGFRGEALASISHVARVTVTTKVKEDRCAWRVSYAEGKMLESPKPVAGKDGTTILVEDLFFNIPSRLRALRSHNDEYSKILDVVGRYAIHSKDIGFSCKKFGDSNYSLSVKPSYTVQDRIRTVFNKSVASNLITFHISKVEDLNLESVDGKVCNLNFISKKSISPIFFINNRLVTCDLLRRALNSVYSNYLPKGNRPFIYLGIVIDPAAVDVNVHPTKREVRFLSQDEIIEKIANQLHAELSAIDTSRTFKASSISTNKPESLIPFNDTIESDRNRKSLRQAQVVENSYTTANSQLRKAKRQENKLVRIDASQAKITSFLSSSQQFNFEGSSTKRQLSEPKVTNVSHSQEAEKLTLNESEQPRDANTINDNDLKDQPKKKQKLGDYKVPSIADDEKNALPISKDGYIRVPKERVNVNLTSIKKLREKVDDSIHRELTDIFANLNYVGVVDEERRLAAIQHDLKLFLIDYGSVCYELFYQIGLTDFANFGKINLQSTNVSDDIVLYNLLSEFDELNDDASKEKIISKIWDMSSMLNEYYSIELVNDGLDNDLKSVKLKSLPLLLKGYIPSLVKLPFFIYRLGKEVDWEDEQECLDGILREIALLYIPDMVPKVDTSDASLSEDEKAQFINRKEHISSLLEHVLFPCIKRRFLAPRHILKDVVEIANLPDLYKVFERC
# partner: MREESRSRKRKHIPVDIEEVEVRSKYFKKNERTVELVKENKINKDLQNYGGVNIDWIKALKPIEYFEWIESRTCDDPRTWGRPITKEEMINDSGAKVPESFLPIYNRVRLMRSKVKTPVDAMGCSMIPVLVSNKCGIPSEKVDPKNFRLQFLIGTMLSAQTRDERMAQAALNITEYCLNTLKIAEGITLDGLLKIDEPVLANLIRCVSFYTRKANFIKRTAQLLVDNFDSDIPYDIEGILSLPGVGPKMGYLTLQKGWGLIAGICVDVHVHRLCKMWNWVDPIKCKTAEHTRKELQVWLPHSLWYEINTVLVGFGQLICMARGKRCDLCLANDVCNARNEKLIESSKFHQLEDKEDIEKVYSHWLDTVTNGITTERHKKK
# B2: DNA mismatch repair protein MLH1 (Saccharomyces cerevisiae), P38920 (parent)
# chain: B1 chain
# partner: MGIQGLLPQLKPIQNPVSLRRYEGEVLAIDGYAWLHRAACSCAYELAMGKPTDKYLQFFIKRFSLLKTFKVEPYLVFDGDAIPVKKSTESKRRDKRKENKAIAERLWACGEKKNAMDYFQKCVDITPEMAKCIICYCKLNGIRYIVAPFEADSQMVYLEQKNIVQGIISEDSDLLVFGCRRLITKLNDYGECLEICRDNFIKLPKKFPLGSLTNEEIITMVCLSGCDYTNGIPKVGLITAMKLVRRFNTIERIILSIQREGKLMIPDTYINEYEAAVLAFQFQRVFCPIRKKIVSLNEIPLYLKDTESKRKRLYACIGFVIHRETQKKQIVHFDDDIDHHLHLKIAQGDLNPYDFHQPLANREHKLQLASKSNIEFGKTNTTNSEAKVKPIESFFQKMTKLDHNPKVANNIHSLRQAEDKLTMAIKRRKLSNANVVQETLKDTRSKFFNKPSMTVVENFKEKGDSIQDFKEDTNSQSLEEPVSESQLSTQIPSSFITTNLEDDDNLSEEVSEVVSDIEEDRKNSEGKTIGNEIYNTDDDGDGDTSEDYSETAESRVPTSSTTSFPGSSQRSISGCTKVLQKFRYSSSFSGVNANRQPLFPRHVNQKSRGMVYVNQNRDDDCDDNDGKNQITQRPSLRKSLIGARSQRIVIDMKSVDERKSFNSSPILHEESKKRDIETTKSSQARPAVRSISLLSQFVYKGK
# B3: Endonuclease III homolog 2 (Saccharomyces cerevisiae), Q08214 (parent)
# chain: B1 partner
# partner: B1 chain
# Variants of: B1
# Settings: with nth2_yeast NTG2, Q08214
row,effect of a mutation on the interaction,Variant
1,disrupting interaction strength,L511A

# Variants of: B2
# Settings: with exo1_yeast EXO1, P39875
row,effect of a mutation on the interaction,Variant
1,disrupting interaction strength,L511A

# Variants of: B3
# Settings: with mlh1_yeast MLH1, P38920
row,effect of a mutation on the interaction,Variant
1,decreasing interaction strength,MREESRSRKRKHIPVDIEEVEVRSKFFKKNERTVELVKENKINKDLQNYGGVNIDWIKALKPIEYFEWIESRTCDDPRTWGRPITKEEMINDSGAKVPESFLPIYNRVRLMRSKVKTPVDAMGCSMIPVLVSNKCGIPSEKVDPKNFRLQFLIGTMLSAQTRDERMAQAALNITEYCLNTLKIAEGITLDGLLKIDEPVLANLIRCVSFYTRKANFIKRTAQLLVDNFDSDIPYDIEGILSLPGVGPKMGYLTLQKGWGLIAGICVDVHVHRLCKMWNWVDPIKCKTAEHTRKELQVWLPHSLWYEINTVLVGFGQLICMARGKRCDLCLANDVCNARNEKLIESSKFHQLEDKEDIEKVYSHWLDTVTNGITTERHKKK [Y26F]
2,disrupting interaction strength,MREESRSRKRKHIPVDIEEVEVRSKYAKKNERTVELVKENKINKDLQNYGGVNIDWIKALKPIEYFEWIESRTCDDPRTWGRPITKEEMINDSGAKVPESFLPIYNRVRLMRSKVKTPVDAMGCSMIPVLVSNKCGIPSEKVDPKNFRLQFLIGTMLSAQTRDERMAQAALNITEYCLNTLKIAEGITLDGLLKIDEPVLANLIRCVSFYTRKANFIKRTAQLLVDNFDSDIPYDIEGILSLPGVGPKMGYLTLQKGWGLIAGICVDVHVHRLCKMWNWVDPIKCKTAEHTRKELQVWLPHSLWYEINTVLVGFGQLICMARGKRCDLCLANDVCNARNEKLIESSKFHQLEDKEDIEKVYSHWLDTVTNGITTERHKKK [F27A]
3,disrupting interaction strength,MREESRSRKRKHIPVDIEEVEVRSKYYKKNERTVELVKENKINKDLQNYGGVNIDWIKALKPIEYFEWIESRTCDDPRTWGRPITKEEMINDSGAKVPESFLPIYNRVRLMRSKVKTPVDAMGCSMIPVLVSNKCGIPSEKVDPKNFRLQFLIGTMLSAQTRDERMAQAALNITEYCLNTLKIAEGITLDGLLKIDEPVLANLIRCVSFYTRKANFIKRTAQLLVDNFDSDIPYDIEGILSLPGVGPKMGYLTLQKGWGLIAGICVDVHVHRLCKMWNWVDPIKCKTAEHTRKELQVWLPHSLWYEINTVLVGFGQLICMARGKRCDLCLANDVCNARNEKLIESSKFHQLEDKEDIEKVYSHWLDTVTNGITTERHKKK [F27Y]
